The text below walks through data of US20080248046A1 (Human Genome Sciences, published 2008).

The target in assay [1] is T1, DR5 expressed from an expression construct in 293 cells (immunoprecipitated with Flag M2 antibody affinity … (human, UniProt O14763 52-440)).
T1 construct: The text says only 'the indicated expression constructs'; also called Death Domain Containing Receptor 5
Put plainly: co-transfection of 293 cells, Flag M2 immunoprecipitation, immunoblot with polyclonal antibody to FADD. The source says:
(§1) 293 cells were co-transfected with the indicated expression constructs using calcium phosphate precipitation.
In general terms: A western blot detects proteins with antibodies after separation by electrophoresis.

For assay [2], the target named is T1, DR5 expressed from an expression …. Nature of the assay: co-transfection of 293 cells, Flag M2 immunoprecipitation, immunoblot with HRP-conjugated antibody to myc.
Excerpt: as §1

B1: FADD (other, UniProt Q13158 1-208, looked up)
chain: MDPFLVLLHSVSSSLSSSELTELKFLCLGRVGKRKLERVQSGLDLFSMLLEQNDLEPGHTELLRELLASLRRHDLLRRVDDFEAGAAAGAAPGEEDLCAAFNVICDNVGKDWRRLARQLKVSDTKIDSIEDRYPRNLTERVRESLRIWKNTEKENATVAHLVGALRSCQMNLVADLVQEVQQARDLQNRSGAMSPMSWNSDASTSEAS
notes: also called FADD/MORT1
Regarding B1, the binding result in assay [1] was “no binding”.

B2: myc-tagged TRADD (other, UniProt Q15628 1-312, looked up)
chain: MAAGQNGHEEWVGSAYLFVESSLDKVVLSDAYAHPQQKVAVYRALQAALAESGGSPDVLQMLKIHRSDPQLIVQLRFCGRQPCGRFLRAYREGALRAALQRSLAAALAQHSVPLQLELRAGAERLDALLADEERCLSCILAQQPDRLRDEELAELEDALRNLKCGSGARGGDGEVASAPLQPPVPSLSEVKPPPPPPPAQTFLFQGQPVVNRPLSLKDQQTFARSVGLKWRKVGRSLQRGCRALRDPALDSLAYEYEREGLYEQAFQLLRRFVQAEGRRATLQRLVEALEENELTSLAEDLLGLTDPNGGLA
notes: also called myc-TRADD
B2: the binding result in assay [2] is reported as “no binding”.
